Test results as given in publication PMC7788135, “OsMS188 Is a Key Regulator of Tapetum Development and Sporopollenin Synthesis in Rice”.

T1: MBP-OsMS188 (Oryza sativa (rice; Nipponbare?), UniProt Q7XQN1 1-372)
T1 sequence: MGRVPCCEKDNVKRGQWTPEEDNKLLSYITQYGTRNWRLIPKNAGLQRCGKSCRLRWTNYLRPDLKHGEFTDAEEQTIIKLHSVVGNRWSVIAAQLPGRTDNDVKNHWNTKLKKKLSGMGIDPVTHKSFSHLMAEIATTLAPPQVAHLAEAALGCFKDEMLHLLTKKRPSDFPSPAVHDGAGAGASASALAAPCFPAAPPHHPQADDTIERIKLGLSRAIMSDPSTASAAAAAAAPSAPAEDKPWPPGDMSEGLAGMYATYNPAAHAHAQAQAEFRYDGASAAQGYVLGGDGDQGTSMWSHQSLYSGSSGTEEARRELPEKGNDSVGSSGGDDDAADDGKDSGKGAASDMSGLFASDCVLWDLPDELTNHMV

T2: MBP-EAT1 (Oryza sativa (rice; Nipponbare?), UniProt Q7X8R0 1-464)
T2 sequence: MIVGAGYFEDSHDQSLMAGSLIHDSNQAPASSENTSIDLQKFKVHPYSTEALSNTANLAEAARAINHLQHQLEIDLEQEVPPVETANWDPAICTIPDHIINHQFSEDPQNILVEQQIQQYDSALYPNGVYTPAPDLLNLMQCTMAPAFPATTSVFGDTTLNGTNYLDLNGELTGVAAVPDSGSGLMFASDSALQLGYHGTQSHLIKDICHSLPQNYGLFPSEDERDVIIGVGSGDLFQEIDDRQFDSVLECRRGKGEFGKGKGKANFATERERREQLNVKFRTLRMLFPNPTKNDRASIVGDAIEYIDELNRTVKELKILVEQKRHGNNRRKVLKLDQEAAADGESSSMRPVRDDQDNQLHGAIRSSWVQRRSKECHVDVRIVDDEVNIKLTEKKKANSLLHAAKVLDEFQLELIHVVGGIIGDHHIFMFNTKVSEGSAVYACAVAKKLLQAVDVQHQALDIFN

T3: MBP-bHLH142 (Oryza sativa (rice; Nipponbare?), UniProt Q5JNS0 1-379)
T3 sequence: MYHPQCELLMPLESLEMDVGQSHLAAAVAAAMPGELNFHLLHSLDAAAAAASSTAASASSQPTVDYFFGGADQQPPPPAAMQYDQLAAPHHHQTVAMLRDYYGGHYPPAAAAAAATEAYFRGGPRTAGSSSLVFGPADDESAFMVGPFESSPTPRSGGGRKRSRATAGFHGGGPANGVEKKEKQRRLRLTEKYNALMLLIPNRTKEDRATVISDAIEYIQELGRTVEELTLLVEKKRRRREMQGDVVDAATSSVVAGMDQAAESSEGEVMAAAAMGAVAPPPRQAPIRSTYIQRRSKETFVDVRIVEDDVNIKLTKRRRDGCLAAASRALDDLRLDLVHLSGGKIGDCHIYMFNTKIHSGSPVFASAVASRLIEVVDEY

B1: OsPKS2 promoter probe (dsDNA)
DNA 1: TACCTGCTCTCCACCAACCATTCTTTCCATGCATTCGTTGCCTCTCAACTGCACCAGCT
DNA 2: AGCTGGTGCAGTTGAGAGGCAACGAATGCATGGAAAGAATGGTTGGTGGAGAGCAGGTA
B2: OsMS188 promoter probe (dsDNA)
DNA 1: GAGAATGCATTTGGTGGTCGTGTGTTGTTTGTAACAACTGGGGAGC
DNA 2: GCTCCCCAGTTGTTACAAACAACACACGACCACCAAATGCATTCTC
B3: ABCG15 promoter probe (dsDNA)
DNA 1: AGTCTGCTTGGCGCTCTCTCTCTGAACCTGTCACTCTTTTTTTCTGTGTCT
DNA 2: AGACACAGAAAAAAAGAGTGACAGGTTCAGAGAGAGAGCGCCAAGCAGACT
B4: OsPKS1 promoter probe (dsDNA)
DNA 1: GCAAAAATGCAGGGTAAAACCAAAGAAGGGTGGAAGGAATGAACCTTCTGCTCCCCCC
DNA 2: GGGGGGAGCAGAAGGTTCATTCCTTCCACCCTTCTTTGGTTTTACCCTGCATTTTTGC
B5: CYP704B2 promoter probe (dsDNA)
DNA 1: AATAGCCTATTCAGATGAAGTAGAATTCAGGTGAAGTAGAAACCAACTACTTTGGGTTC
DNA 2: GAACCCAAAGTAGTTGGTTTCTACTTCACCTGAATTCTACTTCATCTGAATAGGCTATT
B6: CYP703A3 promoter probe (dsDNA)
DNA 1: GATATCACATGACTTGTACATAATGCCTAAAATGTGGATATCTGACCAGGTGCTTGGTG
DNA 2: CACCAAGCACCTGGTCAGATATCCACATTTTAGGCATTATGTACAAGTCATGTGATATC
B7: DPW promoter probe (dsDNA)
DNA 1: AGGGAACTGAATCTTTTGCATGAACCACTGCATTTCCAAGAAGTGCACGAGCTTTGCA
DNA 2: TGCAAAGCTCGTGCACTTCTTGGAAATGCAGTGGTTCATGCAAAAGATTCAGTTCCCT

Legend:
[1] = biological target: T1, MBP-OsMS188; assay: EMSA; unlabelled probe competes; LightShift Chemiluminescent EMSA Kit (Thermo); buffer, salt, pH and temperature not stated; details: protein: recombinant; label: biotin; blunt
[2] = biological target: T2, MBP-EAT1; assay: EMSA; shifted band not reduced by unlabelled probe; authors conclude no direct binding; LightShift Chemiluminescent EMSA Kit (Thermo); buffer, salt, pH and temperature not stated; details: protein: recombinant; chain copies: 2; label: biotin; blunt
[3] = biological target: T3, MBP-bHLH142; assay: as above; details: protein: recombinant; chain copies: 2; label: biotin; blunt
[4] = biological target: MBP-TDR (Oryza sativa (rice; Nipponbare?), UniProt Q6YUS3 1-552); assay: EMSA; unlabelled probe (5- to 200-fold) competes; LightShift Chemiluminescent EMSA Kit (Thermo); buffer, salt, pH and temperature not stated

Binder | binding result [1] | further results
B1 | binds | –
B2 | – | binding result [2]: no binding; binding result [3]: no binding; binding result [4]: binds
B3 | binds | –
B4 | binds | –
B5 | binds | –
B6 | binds | –
B7 | binds | –
